Patent US20220348651A1, “ENTPD2 ANTIBODIES, COMBINATION THERAPIES, AND METHODS OF USING THE ANTIBODIES AND COMBINATION THERAPIES” (Novartis AG, priority 2019, published 2022)
Values belong to the molecule of their own block, whether it stands above or below them.

Legend:
cyno ENTPD2 = assay: FACS binding to cyno ENTPD2 expressing cells (apparent FACS affinity); set-up: species or system cynomolgus monkey
Experimental: (§1) FACS screening: Specific binding of candidate antibodies to endogenously expressed ENTPD2 was assessed by flow cytometry. Cells were rinsed thoroughly with 1×PBS and treated with Accutase (Millipore #SCR005) to lift from growth plates and resuspended at approximately 1×10^5 cells/90 μL in 1× FACS buffer (2% FBS+0.1% NaN3 in PBS). In a 96-well U-bottom plate, 10 μL of 10× antibody solution in FACS buffer was pre-seeded and 90 μL of cell suspension was added. Cell were incubated for 30 minutes at 4° C., washed 1× with cold PBS and resuspended in 100 μL of 1:500 secondary antibody 1× FACS buffer (Allophycocyanin conjugated F(ab′)2 goat anti-human IgG, Fcγ specific; Jackson Immunoresearch, Cat#109-136-098). After additional incubation for 15 min at 4° C., cells were washed twice with PBS and resuspended in 100 μL of 1×FACS buffer with 4 μg/mL propidium iodide (Life Technologies, Cat#P3566). Geometric mean fluorescence intensity was calculated on live single cells using FlowJo software.

mouse ENTPD2 = biological target: T1, mouse ENTPD2 (Mus musculus, UniProt O55026); assay: Antibody specificity: binding to mouse ENTPD2; conditions: Mouse ENTPD2
T1 construct: residues 29-462 of mouse or rat ENTPD2 (the extracellular domain); mouse IgK signal peptide (N); His6; made in house; host or cells: FreeStyle 293-F cells, transient transfection
T1 sequence (O55026 29-462): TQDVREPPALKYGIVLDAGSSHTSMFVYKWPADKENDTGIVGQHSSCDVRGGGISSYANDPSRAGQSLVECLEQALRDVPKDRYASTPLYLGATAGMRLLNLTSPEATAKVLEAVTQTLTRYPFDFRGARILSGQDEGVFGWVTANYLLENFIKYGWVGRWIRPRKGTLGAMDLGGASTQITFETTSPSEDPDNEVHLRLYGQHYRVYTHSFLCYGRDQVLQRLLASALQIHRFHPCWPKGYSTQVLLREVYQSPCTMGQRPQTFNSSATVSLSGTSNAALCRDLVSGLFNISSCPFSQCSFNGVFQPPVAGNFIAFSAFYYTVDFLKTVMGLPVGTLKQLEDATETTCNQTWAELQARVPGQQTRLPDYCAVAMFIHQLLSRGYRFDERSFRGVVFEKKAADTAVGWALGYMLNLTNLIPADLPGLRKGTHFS
Source text: Antibody specificity for mAbl-mAblO was confirmed. […] Antibodies mAb8, mAb9, and mAb10 show weak affinity to mouse ENTPD2. None of the selected antibodies bind to rat ENTPD2.

ENTPD2 = biological target: T2, ENTPD2 (Homo sapiens, UniProt Q9Y5L3); assay: FACS binding to human ENTPD2 expressing cells (apparent FACS affinity); set-up: expressed in transfected cells; host or cells: NIH/3T3 (retroviral transduction)
T2 sequence (Q9Y5L3 1-495): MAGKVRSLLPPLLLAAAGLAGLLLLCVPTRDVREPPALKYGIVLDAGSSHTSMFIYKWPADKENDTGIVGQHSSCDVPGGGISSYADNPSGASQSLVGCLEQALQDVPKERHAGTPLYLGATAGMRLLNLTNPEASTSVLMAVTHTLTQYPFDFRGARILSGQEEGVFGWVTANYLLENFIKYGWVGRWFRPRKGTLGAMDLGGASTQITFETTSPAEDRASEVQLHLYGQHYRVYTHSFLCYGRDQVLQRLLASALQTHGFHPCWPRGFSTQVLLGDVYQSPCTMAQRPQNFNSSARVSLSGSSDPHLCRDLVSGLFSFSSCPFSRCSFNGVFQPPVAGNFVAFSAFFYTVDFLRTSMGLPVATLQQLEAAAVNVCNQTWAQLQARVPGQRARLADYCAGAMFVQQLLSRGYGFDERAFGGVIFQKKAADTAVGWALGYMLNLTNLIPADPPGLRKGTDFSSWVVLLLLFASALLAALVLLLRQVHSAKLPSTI
Experimental: as §1, with “FACS screening: Specific binding of candidate antibodies to endogenously expressed ENTPD2 was assessed by flow cytometry.” left out

Human ENTPD1 = biological target: T3, Human ENTPD1 (Homo sapiens, UniProt P49961); assay: Cross reactivity: FACS binding to human ENTPD1 expressing NIH/3T3 cells; conditions: NIH/3T3-ENTPD1 cells, 50 nM antibody
T3 construct: expressed in transfected cells; host or cells: NIH/3T3 (retroviral transduction, FACS-sorted)
T3 sequence (P49961 1-510): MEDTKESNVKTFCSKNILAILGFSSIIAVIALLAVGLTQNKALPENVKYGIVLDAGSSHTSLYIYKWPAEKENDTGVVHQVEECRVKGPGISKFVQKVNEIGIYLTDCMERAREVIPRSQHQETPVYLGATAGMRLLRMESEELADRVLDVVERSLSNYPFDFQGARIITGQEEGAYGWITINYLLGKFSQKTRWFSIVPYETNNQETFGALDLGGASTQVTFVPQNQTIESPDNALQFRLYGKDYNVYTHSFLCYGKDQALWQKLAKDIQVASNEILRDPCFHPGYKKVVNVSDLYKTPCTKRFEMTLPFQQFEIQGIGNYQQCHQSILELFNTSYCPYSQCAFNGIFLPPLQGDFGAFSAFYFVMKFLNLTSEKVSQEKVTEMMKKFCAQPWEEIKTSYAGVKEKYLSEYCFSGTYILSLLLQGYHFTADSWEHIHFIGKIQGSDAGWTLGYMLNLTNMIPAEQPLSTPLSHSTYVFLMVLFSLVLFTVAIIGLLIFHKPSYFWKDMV
Experimental: as §1
Cross reactivity Human ENTPD1 (NP_001767) expressing NIH/3T3 cells were generated using a retroviral transduction approach. 72 hrs post transduction, engineered cells were stained with the anti-Human CD39/ENTPD1 APC-conjugated Antibody (R&D systems, Minneapolis, Minn.) and live cells that expressed human ENTPD1 were separated from the rest of the population via fluorescence activated cell sorting. […]

Sequence of cyno ENTPD2 (as listed by the source): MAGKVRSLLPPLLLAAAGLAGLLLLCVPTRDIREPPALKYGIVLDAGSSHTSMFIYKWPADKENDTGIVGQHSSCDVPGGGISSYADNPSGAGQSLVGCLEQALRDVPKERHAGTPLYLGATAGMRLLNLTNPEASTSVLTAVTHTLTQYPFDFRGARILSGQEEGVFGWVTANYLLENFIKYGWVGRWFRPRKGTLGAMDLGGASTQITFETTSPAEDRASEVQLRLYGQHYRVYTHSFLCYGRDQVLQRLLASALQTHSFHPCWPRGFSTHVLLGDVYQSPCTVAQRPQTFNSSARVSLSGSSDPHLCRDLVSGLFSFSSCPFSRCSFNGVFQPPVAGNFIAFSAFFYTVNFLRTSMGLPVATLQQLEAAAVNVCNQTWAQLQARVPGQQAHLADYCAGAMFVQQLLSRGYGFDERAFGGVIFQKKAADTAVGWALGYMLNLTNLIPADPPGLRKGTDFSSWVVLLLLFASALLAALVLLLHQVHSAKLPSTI

EC50 (cyno ENTPD2; NIH3T3 cynoENTPD2 cells): 800 pM
BIACore KD (mouse ENTPD2): No binding
EC50 (ENTPD2; NIH3T3 humanENTPD2 cells): 500 pM
Apparent FACS binding at 50 nM (Human ENTPD1): No binding
B1: mAb7: humanized anti-human ENTPD2 antibody from mAb17; VH SEQ ID NO: 25, VL SEQ ID NO: 78 (antibody, V domains shown)
VH: QVQLVQSGAEVVKPGASVKISCKASGYTFTDYNMDWVKQAPGQRLEWIGDINPKYDISTYNQQFKGKATITVDKSASTAYMELSSLRSEDTAVYYCARRGFFLYYGINYYYFDVWGQGTLVTVSS
VL: EIVLTQSPATLSASPGEEITLSCSASSSVSYIHWYQQKPGQAPRLLIYSTSNLASGIPARFSGSGSGTFYTLTISSVEPEDAAVYYCHQWSSYPWTFGGGTKLEIK

B2: mAb13: anti-mouse ENTPD2 antibody; HC SEQ ID NO: 193, LC SEQ ID NO: 204 (antibody)
heavy: QVQLVQSGAELKQPGQSVKISCKASGYTFTHYGMNWVKQAPGQGLKWMGWINTDTGNPTYADDFKGRFVFSLDTSVSTAYLQISNLKNEDTATYYCVRYGTLYSGYGFFFDSWGQGTLVTVSSAKTTAPSVYPLAPVCGDTTGSSVTLGCLVKGYFPEPVTLTWNSGSLSSGVHTFPAVLQSDLYTLSSSVTVTSSTWPSQSITCNVAHPASSTKVDKKIEPRGPTIKPCPPCKCPAPNLLGGPSVFIFPPKIKDVLMISLSPIVTCVVVDVSEDDPDVQISWFVNNVEVHTAQTQTHREDYNSTLRVVSALPIQHQDWMSGKEFKCKVNNKDLPAPIERTISKPKGSVRAPQVYVLPPPEEEMTKKQVTLTCMVTDFMPEDIYVEWTNNGKTELNYKNTEPVLDSDGSYFMYSKLRVEKKNWVERNSYSCSVVHEGLHNHHTTKSFSRTPGK
light: DIMMTQSPSSLSVSAGEKATITCKSSQSLFNSNTNKNYLNWYLQKPGQSPKLLFYYASTRHTGVPDRFIGSGSGTDFTLTITSVQDEDLADYYCQQWYSYPWTFGPGTKLEIKRADAAPTVSIFPPSSEQLTSGGASVVCFLNNFYPKDINVKWKIDGSERQNGVLNSWTDQDSKDSTYSMSSTLTLTKDEYERHNSYTCEATHKTSTSPIVKSFNRNEC
binding to cyno ENTPD2 (cyno ENTPD2): no binding
binding to human ENTPD2 (ENTPD2): no binding
